In article PMC6986764, “RNA binding protein FXR1-miR301a-3p axis contributes to p21WAF1 degradation in oral cancer”:

Biological target: FXR1 (rFXR1) (human, UniProt P51114 1-621)
Assay: EMSA; 1 ug E. coli tRNA, 1.5 mM EDTA; EMSA: 0.5 pmol 32P-miRNA in 20 ul, 20 mM Na-HEPES pH 7.0, 150 mM NaCl, 0.75 mM DTT, 1.5 mM EDTA, 10% glycerol, 1 ug E. coli tRNA, 37 C 30 min; 12% native PAGE
Conditions: protein: recombinant, His-tag (pET28a), thrombin-cleaved in final dialysis, single strand

FXR1 (rFXR1), sequence (P51114 whole entry): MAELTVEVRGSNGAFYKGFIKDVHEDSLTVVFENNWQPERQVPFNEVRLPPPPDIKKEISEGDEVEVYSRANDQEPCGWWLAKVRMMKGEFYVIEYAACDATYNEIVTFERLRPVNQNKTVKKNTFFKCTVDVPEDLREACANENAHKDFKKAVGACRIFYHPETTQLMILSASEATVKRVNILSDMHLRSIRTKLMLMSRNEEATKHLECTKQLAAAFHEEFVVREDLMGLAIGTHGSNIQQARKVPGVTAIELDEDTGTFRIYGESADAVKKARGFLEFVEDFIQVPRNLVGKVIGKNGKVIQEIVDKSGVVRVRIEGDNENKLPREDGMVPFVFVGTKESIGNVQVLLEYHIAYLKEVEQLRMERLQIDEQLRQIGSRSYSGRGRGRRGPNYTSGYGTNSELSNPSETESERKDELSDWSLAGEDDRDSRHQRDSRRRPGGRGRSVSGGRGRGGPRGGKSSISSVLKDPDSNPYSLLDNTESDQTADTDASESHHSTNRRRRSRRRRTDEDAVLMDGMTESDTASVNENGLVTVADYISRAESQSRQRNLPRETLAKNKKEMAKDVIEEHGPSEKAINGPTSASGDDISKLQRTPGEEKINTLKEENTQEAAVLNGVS

| Binder | binding result (label: 5'-32P) | binding result (label: 32P) |
| --- | --- | --- |
| CAGUGCAAUAGUAUUGUCAAAGC (ssRNA) [miR301a-3p] | binds |  |
| UUCCCUUUGUCAUCCUAUGCCU (ssRNA) [miR204-5p] |  | no binding |
